Values of other authors in publication PMC10003451, “Phosphorylated Peptide Derived from the Myosin Phosphatase Target Subunit Is a Novel Inhibitor of Protein Phosphatase-1” (International Journal of Molecular Sciences, 2023).

Experiments:
PP1c = target: T1, PP1c (Homo sapiens, UniProt P62136); set-up: method as in 2 sources, ref 30 = [30]; PMID 12030846; doi:10.1042/bj20020401; 30. Murányi A. MacDonald J.A. Deng J.T. Wilson D.P. Haystead T.A. Walsh M.P. Erdődi F. Kiss E. Wu Y. Hartshorne D.J. Phosphorylation of the myosin phosphatase target subunit by integrin-linked kinase ||| ref 31 = [31]; PMID 19531490; doi:10.1074/jbc.M109.019729; 31. Khromov A. Choudhury N. Stevenson A.S. Somlyo A.V. Eto M. Phosphorylation-dependent autoinhibition of myosin light chain phosphatase accounts for Ca 2+ sensitization force of smooth muscle contrac
T1 construct: made in house; host or cells: E. coli

MP holoenzyme = system: MP holoenzyme; set-up: method as in PMID 19531490; conditions: phosphorylated at Thr696

T1 sequence (P62136 whole entry): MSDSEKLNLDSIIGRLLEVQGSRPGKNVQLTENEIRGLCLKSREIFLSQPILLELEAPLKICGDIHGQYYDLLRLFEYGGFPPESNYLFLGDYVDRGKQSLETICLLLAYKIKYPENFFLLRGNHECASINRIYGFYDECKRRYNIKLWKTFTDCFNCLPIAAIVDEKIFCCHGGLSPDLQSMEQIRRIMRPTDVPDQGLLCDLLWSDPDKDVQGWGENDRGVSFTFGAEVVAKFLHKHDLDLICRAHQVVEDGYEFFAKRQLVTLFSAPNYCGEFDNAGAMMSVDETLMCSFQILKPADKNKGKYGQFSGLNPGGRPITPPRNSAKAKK

| Molecule | IC50 (PP1c; phosphorylated at Thr654 (corresponding to Thr696 in the longer MYPT1 isoform), read-out: IC50, inhibition of PP1c (literature)) [nM] | effect on PP1c (literature) (PP1c; phosphorylated at Thr696) | inhibition of MP holoenzyme (literature) (MP holoenzyme) |
| --- | --- | --- | --- |
| His-tagged MYPT1^514−963: C-terminal fragment of a recombinant His-tagged MYPT1 phosphorylated at Thr654 (protein, UniProt O14974 514-963, looked up, fragment, His tag; phosphorylated Thr654) KENRDSSSLRTSSSYTRRKWEDDLKKNSSVNEGSTYHKSCSFGRRQDDLISSSVPSTTSTPTVTSAAGLQKSLLSSTSTTTKITTGSSSAGTQSSTSNRLWAEDSTEKEKDSVPTAVTIPVAPTVVNAAASTTTLTTTTAGTVSSTTEVRERRRSYLTPVRDEESESQRKARSRQARQSRRSTQGVTLTDLQEAEKTIGRSRSTRTREQENEEKEKEEKEKQDKEKQEEKKESETSREDEYKQKYSRTYDETYQRYRPVSTSSSTTPSSSLSTMSSSLYASSQLNRPNSLVGITSAYSRGITKENEREGEKREEEKEGEDKSQPKSIRERRRPREKRRSTGVSFWTQDSDENEQEQQSDTEEGSNKKETQTDSISRYETSSTSAGDRYDSLLGRSGSYSYLEERKPYSSRLEKDDSTDFKKLYEQILAENEKLKAQLHDTNMELTDLKLQ | ~100 | – | – |
| GST-MYPT1^654−880: GST-MYPT1^654−880 fragment phosphorylated at Thr696 (protein, UniProt O14974 654-880, looked up, fragment, GST fusion; phosphorylated Thr696, GST-MYPT1^654−880 fragment phosphorylated at Thr696) GTVSSTTEVRERRRSYLTPVRDEESESQRKARSRQARQSRRSTQGVTLTDLQEAEKTIGRSRSTRTREQENEEKEKEEKEKQDKEKQEEKKESETSREDEYKQKYSRTYDETYQRYRPVSTSSSTTPSSSLSTMSSSLYASSQLNRPNSLVGITSAYSRGITKENEREGEKREEEKEGEDKSQPKSIRERRRPREKRRSTGVSFWTQDSDENEQEQQSDTEEGSNKK | – | without effect on PP1c | inhibited MP holoenzyme potently in nanomolar concentrations |
